Consider one substance from doi:10.1101/2021.11.02.466875.

Read-outs that look alike come from different tables or passages of the source.

What all share (test): BLI
A general note: In BLI a coated tip is dipped into the sample, and binding shifts an interference pattern.

For assay [1], the target named is RapC (Bacillus velezensis SQR9).
Assay [2] has the same target. This is another data set of the same source.
Assay [3] shares this target. The source holds these as a separate data set.
For assay [4] the target is unchanged. The source holds these as a separate data set.

A word on the Kd: it is a measure of binding affinity in units of concentration. Lower therefore signals a tighter complex. Take ComA (natural protein): the dissociation constant Kd in assay [1] stood at 0.00869 µM; in assay [2], 0.0268 µM; in assay [3] it was 0.00549 µM; in assay [4], 0.0135 µM.
